Results reported in the supplement of paper PMC10065799, “High-throughput profiling of sequence recognition by tyrosine kinases and SH2 domains using bacterial peptide display” (eLife, 2023).

Tests used:
SHP2-C SH2 = test: SH2 binding enrichment of the phosphorylated peptide, bacterial display (enrichment ratio); higher = better substrate or ligand; peptides without Tyr show the background
c-Src SH2 = test: as above
Grb2 SH2 = Grb2 SH2 (UniProt P62993); test: as above
Fes = Fes (UniProt P07332); test: phosphorylation enrichment, bacterial display (enrichment ratio); higher = better substrate or ligand; peptides without Tyr show the background
c-Src = test: as above
MERTK = MERTK (UniProt Q12866); test: as above
Fer (mouse) = test: as above
AncSZ = test: as above
FGFR3 = FGFR3 (UniProt P22607); test: as above
Jak2 = Jak2 (UniProt O60674); test: as above
EPHB1 = EPHB1 (UniProt P54762); test: as above
c-Abl (mouse) = test: as above
FGFR1 = FGFR1 (UniProt P11362); test: as above
EPHB2 = EPHB2 (UniProt P29323); test: as above
Fyn = Fyn (UniProt P06241); test: as above
Hck = Hck (UniProt P08631); test: as above
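Wherever SH2 binding enrichment of the phosphorylated peptide, bacterial display is given: peptide library displayed on the E. coli surface as eCPX fusions, selected cells deep-sequenced, score is each peptide's frequency after selection divided by its frequency in the input.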
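Wherever phosphorylation enrichment, bacterial display is given: 11-residue human phosphosite peptides and single-mutation variants displayed on the E. coli surface, counted by deep sequencing, each peptide's frequency after selection divided by its frequency in the unselected input library; frequency after pTyr selection over input frequency; kinase dosed for 20-30% of maximal phosphorylation in three min.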

Sequence of Fes (P07332 whole entry, looked up): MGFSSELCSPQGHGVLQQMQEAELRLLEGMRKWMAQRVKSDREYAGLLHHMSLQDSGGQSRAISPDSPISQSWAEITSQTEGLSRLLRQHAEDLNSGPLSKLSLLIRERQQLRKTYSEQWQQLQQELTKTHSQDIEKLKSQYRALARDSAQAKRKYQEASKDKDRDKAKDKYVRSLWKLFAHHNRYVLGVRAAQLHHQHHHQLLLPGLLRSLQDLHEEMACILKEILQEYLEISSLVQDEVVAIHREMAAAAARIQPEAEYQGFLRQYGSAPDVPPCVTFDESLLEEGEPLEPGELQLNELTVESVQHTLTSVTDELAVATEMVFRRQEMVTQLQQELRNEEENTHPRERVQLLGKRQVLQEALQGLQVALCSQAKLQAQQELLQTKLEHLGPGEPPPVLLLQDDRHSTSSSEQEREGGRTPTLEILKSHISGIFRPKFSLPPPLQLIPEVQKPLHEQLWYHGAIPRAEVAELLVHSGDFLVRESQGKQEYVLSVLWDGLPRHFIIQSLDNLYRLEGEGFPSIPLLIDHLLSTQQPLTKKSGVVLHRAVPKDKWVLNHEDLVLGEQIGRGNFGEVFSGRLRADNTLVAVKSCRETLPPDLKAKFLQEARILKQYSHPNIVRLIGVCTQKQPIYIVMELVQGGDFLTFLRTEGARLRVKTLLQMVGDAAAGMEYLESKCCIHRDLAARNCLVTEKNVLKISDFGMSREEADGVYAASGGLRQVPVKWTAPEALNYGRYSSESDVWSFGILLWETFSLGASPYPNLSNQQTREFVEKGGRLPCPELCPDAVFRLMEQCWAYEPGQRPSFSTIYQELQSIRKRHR
Sequence of EPHB2 (P29323 whole entry, looked up): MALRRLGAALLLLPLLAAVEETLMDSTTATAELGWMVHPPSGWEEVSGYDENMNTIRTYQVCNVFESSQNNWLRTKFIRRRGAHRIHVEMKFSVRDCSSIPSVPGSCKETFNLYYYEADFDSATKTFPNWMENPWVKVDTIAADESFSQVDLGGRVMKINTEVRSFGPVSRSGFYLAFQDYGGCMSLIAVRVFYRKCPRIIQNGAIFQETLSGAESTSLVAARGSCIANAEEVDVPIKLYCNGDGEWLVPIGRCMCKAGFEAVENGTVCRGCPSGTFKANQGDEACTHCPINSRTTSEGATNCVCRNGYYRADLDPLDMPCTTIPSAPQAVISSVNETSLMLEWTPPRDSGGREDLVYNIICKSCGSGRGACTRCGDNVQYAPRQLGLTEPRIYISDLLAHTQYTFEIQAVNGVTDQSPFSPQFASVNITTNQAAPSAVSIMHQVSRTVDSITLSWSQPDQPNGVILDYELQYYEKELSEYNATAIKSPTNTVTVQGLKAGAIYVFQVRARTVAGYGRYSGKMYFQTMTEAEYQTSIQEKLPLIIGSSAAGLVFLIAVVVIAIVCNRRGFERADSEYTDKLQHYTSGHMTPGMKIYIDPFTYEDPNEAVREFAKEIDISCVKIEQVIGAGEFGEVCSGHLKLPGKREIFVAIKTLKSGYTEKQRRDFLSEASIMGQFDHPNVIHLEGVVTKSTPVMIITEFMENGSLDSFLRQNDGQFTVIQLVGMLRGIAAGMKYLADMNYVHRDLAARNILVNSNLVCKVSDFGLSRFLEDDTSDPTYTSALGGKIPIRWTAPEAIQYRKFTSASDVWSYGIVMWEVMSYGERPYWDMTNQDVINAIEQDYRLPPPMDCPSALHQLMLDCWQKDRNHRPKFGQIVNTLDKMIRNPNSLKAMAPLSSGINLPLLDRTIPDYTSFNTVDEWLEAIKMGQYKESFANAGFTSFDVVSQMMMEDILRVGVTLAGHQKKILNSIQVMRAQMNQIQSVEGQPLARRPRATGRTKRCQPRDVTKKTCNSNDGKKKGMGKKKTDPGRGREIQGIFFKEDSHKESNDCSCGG
Sequence of Fyn (P06241 whole entry, looked up): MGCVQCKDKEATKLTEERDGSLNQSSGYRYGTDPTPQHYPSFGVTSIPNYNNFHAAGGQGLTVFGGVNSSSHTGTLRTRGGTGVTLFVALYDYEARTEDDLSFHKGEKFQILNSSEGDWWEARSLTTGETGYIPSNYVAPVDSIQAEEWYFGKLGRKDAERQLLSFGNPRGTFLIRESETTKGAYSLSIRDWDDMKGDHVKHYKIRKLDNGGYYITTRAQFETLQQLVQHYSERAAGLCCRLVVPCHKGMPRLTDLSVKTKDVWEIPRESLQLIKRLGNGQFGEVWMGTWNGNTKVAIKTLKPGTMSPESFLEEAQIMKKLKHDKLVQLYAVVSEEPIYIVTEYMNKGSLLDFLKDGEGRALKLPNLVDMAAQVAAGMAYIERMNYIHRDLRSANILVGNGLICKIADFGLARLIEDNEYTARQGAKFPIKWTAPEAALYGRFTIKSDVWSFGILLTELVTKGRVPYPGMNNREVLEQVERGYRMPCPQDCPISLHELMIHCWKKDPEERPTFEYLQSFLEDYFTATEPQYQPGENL
Sequence of FGFR1 (P11362 whole entry, looked up): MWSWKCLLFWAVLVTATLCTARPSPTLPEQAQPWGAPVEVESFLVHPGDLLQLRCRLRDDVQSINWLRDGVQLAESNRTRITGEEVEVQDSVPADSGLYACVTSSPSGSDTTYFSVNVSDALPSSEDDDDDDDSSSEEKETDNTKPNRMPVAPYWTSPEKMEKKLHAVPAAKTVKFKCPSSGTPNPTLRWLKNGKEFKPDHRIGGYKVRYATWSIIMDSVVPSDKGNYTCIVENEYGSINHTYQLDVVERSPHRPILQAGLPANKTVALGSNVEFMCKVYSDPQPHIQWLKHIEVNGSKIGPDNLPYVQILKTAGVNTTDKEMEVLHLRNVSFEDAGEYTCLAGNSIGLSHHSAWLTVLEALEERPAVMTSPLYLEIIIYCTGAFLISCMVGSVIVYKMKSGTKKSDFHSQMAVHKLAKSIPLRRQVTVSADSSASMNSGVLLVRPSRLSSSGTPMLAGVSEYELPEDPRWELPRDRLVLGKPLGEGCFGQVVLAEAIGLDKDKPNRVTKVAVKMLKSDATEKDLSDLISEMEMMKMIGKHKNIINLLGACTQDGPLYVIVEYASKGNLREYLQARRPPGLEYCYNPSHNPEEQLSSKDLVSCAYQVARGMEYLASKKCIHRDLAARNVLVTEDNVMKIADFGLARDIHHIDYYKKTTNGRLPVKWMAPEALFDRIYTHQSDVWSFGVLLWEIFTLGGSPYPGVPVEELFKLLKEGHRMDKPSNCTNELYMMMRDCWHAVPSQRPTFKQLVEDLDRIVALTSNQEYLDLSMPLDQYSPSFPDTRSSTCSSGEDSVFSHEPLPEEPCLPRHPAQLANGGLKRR
Sequence of EPHB1 (P54762 whole entry, looked up): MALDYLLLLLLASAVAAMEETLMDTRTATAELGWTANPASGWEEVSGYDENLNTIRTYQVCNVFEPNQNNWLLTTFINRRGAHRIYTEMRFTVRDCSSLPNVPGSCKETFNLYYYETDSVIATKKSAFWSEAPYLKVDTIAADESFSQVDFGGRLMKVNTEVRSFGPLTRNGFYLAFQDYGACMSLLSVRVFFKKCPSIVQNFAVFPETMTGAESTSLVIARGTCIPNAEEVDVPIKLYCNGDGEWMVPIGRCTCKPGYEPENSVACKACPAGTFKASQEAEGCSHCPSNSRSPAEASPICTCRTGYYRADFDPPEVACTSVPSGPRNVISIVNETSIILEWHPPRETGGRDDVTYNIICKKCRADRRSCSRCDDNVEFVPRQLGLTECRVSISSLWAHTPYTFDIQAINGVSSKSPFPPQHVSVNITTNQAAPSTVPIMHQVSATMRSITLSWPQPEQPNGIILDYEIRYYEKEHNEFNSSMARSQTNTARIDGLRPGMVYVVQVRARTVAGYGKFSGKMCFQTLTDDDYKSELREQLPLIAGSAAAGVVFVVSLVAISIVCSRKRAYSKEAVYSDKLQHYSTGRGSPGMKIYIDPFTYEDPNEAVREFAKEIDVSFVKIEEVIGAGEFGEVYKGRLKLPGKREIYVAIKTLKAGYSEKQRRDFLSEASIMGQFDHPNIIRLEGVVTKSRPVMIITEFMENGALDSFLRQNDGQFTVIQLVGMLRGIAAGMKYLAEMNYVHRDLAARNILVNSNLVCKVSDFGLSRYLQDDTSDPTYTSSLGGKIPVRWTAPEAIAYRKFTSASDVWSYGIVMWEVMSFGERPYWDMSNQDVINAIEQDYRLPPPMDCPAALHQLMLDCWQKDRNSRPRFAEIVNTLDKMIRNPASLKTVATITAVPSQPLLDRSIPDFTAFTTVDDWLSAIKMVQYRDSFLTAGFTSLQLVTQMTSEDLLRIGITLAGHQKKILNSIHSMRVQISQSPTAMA
Sequence of FGFR3 (P22607 whole entry, looked up): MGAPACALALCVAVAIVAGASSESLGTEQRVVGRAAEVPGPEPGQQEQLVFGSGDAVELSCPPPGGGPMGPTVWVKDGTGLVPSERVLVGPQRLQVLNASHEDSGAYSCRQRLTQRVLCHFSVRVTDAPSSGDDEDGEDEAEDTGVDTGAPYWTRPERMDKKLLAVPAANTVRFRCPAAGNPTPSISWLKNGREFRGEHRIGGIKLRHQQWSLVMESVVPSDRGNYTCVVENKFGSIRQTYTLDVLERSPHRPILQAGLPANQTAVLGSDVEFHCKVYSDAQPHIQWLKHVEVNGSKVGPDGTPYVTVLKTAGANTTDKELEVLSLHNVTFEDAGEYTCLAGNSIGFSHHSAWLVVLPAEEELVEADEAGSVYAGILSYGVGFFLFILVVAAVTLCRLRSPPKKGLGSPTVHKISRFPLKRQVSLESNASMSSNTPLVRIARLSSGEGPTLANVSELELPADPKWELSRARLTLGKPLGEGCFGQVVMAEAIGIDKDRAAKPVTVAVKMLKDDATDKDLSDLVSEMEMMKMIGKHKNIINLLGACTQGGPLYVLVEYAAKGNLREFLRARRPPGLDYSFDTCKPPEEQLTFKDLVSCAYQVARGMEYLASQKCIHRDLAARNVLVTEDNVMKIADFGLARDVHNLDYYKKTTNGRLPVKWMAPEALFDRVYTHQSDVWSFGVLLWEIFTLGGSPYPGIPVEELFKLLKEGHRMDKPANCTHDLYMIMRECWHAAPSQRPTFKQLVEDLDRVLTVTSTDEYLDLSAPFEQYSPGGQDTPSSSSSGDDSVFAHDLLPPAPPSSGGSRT

SH2 binding enrichment (SHP2-C SH2) | SH2 binding enrichment (c-Src SH2) | SH2 binding enrichment (Grb2 SH2) | Sequence | phosphorylation enrichment (Fes) | phosphorylation enrichment (c-Src) | phosphorylation enrichment (MERTK) | phosphorylation enrichment (Fer (mouse)) | phosphorylation enrichment (AncSZ) | phosphorylation enrichment (FGFR3) | phosphorylation enrichment (Jak2) | phosphorylation enrichment (EPHB1) | phosphorylation enrichment (c-Abl (mouse)) | phosphorylation enrichment (FGFR1) | phosphorylation enrichment (EPHB2) | phosphorylation enrichment (Fyn) | phosphorylation enrichment (Hck)
0.752 | 0.488 | 0.769 | MKALGYFAVVT [OPA1_Y498] | 1.53 | 0.436 | 0.403 | 0.655 | 1.25 | 0.996 | 1.62 | 0.852 | 0.892 | 0.579 | 0.773 | 0.63 | 0.825
1.86 | 1.61 | 1.73 | FQRITYHNWRH [PDE6B_Y556_R552Q_YF] | 0.762 | 0.417 | 0.41 | 0.452 | 0.55 | 0.634 | 0.791 | 0.449 | 0.487 | 0.447 | 0.511 | 0.466 | 0.478
0.244 | 0.275 | 0.872 | KKKKQYKDKYL [CASK_Y708] | 0.534 | 0.728 | 0.631 | 0.587 | 0.614 | 0.471 | 0.475 | 0.53 | 0.837 | 0.506 | 0.393 | 0.454 | 0.548
0.482 | 0.543 | 0.765 | IAKNPYDPPGR | 0.689 | 0.38 | 0.426 | 0.37 | 0.56 | 0.48 | 0.635 | 0.363 | 0.455 | 0.405 | 0.333 | 0.344 | 0.316
1.59 | 0.718 | 0.651 | GEHSIYSTVNN [CD55_Y266_C267S] | 1.5 | 7.42 | 7.23 | 14.5 | 0.792 | 0.52 | 0.536 | 9.99 | 6.92 | 0.584 | 13 | 10.3 | 10.9
0.572 | 0.485 | 0.832 | VGTKQYMAPEV [ACVRL1_Y375_R374Q] | 0.754 | 0.598 | 0.469 | 0.42 | 0.678 | 0.51 | 0.738 | 0.466 | 0.674 | 0.458 | 0.653 | 0.432 | 0.429
0.617 | 0.452 | 1.11 | MSDVPYVMNRG [ACAT1_Y161_N158D] | 0.68 | 0.439 | 0.348 | 0.42 | 0.669 | 0.501 | 0.652 | 0.4 | 0.549 | 0.403 | 0.452 | 0.316 | 0.358
0.795 | 0.538 | 0.883 | ICRWVYPLTPE [EIF2B5_Y319_R315C] | 1.36 | 0.578 | 0.505 | 0.405 | 1.29 | 0.733 | 1.14 | 0.5 | 0.739 | 0.516 | 0.542 | 0.528 | 0.585
0.842 | 0.471 | 0.746 | SHLEDYPFDAE [AKR1B10_Y310_N313D] | 1.14 | 0.462 | 0.369 | 0.469 | 0.986 | 0.714 | 1.3 | 0.516 | 0.672 | 0.467 | 0.554 | 0.485 | 0.448
0.56 | 0.66 | 0.826 | TSSGGYRRTPS [ABI1_Y333] | 0.499 | 0.419 | 0.467 | 0.473 | 0.499 | 0.428 | 0.473 | 0.355 | 0.486 | 0.386 | 0.532 | 0.433 | 0.409
0.547 | 0.405 | 0.862 | VGNPAYRSFSN [IL4R_Y497_A492V] | 0.546 | 0.376 | 0.374 | 0.509 | 0.518 | 0.435 | 0.608 | 0.368 | 0.478 | 0.412 | 0.417 | 0.441 | 0.329
0.555 | 0.383 | 0.679 | PMQLPHDSTWE [PDGFRB_Y589_Y589H] | 1.96 | 0.628 | 0.531 | 0.737 | 2.22 | 1.23 | 1.34 | 0.829 | 1.61 | 0.66 | 0.776 | 0.582 | 0.78
0.908 | 1.01 | 0.959 | NGRQCYSCKGN [PLAUR_Y217] | 0.456 | 0.346 | 0.379 | 0.377 | 0.481 | 0.341 | 0.574 | 0.266 | 0.416 | 0.381 | 0.336 | 0.324 | 0.336
0.55 | 0.481 | 0.783 | EASGIYVKSVI [PATJ_Y396_I400V] | 1.1 | 0.462 | 0.366 | 0.481 | 0.958 | 0.741 | 0.97 | 0.543 | 0.716 | 0.47 | 0.465 | 0.433 | 0.501
0.631 | 1.32 | 0.883 | PEVSGYCHFAD [TG_Y234_C237Y_YF] | 1.39 | 0.572 | 0.384 | 0.517 | 1.29 | 0.773 | 1.15 | 0.745 | 0.937 | 0.709 | 0.782 | 0.532 | 0.639
0.445 | 0.591 | 0.684 | FGSVMYEFVGK [SLC18A1_Y251] | 1.76 | 3.48 | 11.1 | 15.1 | 2.6 | 1.35 | 1.38 | 5.8 | 1.3 | 1.35 | 3.28 | 2.57 | 8.76
0.831 | 0.533 | 0.716 | IVLRSYPASGH [NID2_Y449] | 0.817 | 0.415 | 0.493 | 0.479 | 0.726 | 0.596 | 0.682 | 0.532 | 0.511 | 0.392 | 0.451 | 0.481 | 0.415

SH2 binding enrichment (SHP2-C SH2) | SH2 binding enrichment (c-Src SH2) | SH2 binding enrichment (Grb2 SH2) | Sequence | phosphorylation enrichment (Fes) | phosphorylation enrichment (c-Src) | phosphorylation enrichment (MERTK) | phosphorylation enrichment (Fer (mouse)) | phosphorylation enrichment (AncSZ) | phosphorylation enrichment (FGFR3) | phosphorylation enrichment (Jak2) | phosphorylation enrichment (EPHB1) | phosphorylation enrichment (c-Abl (mouse)) | phosphorylation enrichment (FGFR1) | phosphorylation enrichment (EPHB2) | phosphorylation enrichment (Fyn) | phosphorylation enrichment (Hck)
0.8 | 0.528 | 0.992 | FSGKAYADEEQ [CRIM1_Y826_R831Q] | 1.14 | 0.41 | 0.552 | 0.529 | 1.12 | 0.81 | 1.31 | 0.581 | 1.2 | 0.459 | 0.675 | 0.522 | 0.565
0.551 | 0.268 | 0.769 | ALECLYRREKR [TEKT5_Y195_H196R] | 1.85 | 0.66 | 0.621 | 0.435 | 0.775 | 0.482 | 0.788 | 0.466 | 0.522 | 0.584 | 0.534 | 0.539 | 0.515
1.05 | 0.919 | 0.963 | YGAHNHHPLPV [OAT_Y55_Y55H] | 0.696 | 0.506 | 0.516 | 0.693 | 0.538 | 0.473 | 0.62 | 0.413 | 0.671 | 0.408 | 0.38 | 0.415 | 0.458
0.734 | 0.586 | 0.766 | RPQDGFRIVQH [PTPRT_Y1329_Y1329F] | 0.838 | 0.483 | 0.52 | 0.417 | 0.769 | 0.45 | 0.561 | 0.62 | 0.836 | 0.43 | 0.426 | 0.597 | 0.532
1.5 | 1.65 | 0.777 | LGKGSYAKVKS [TSSK2_Y23] | 1.83 | 1.53 | 1.11 | 0.693 | 0.884 | 0.844 | 1.54 | 0.482 | 1.26 | 0.955 | 0.875 | 1.37 | 0.985
0.555 | 0.633 | 1.1 | LSQDVYEEDSY [RET_Y900_R897Q] | 1.71 | 0.856 | 0.584 | 0.835 | 1.53 | 1.04 | 1.76 | 0.966 | 1.13 | 0.695 | 1.19 | 0.782 | 0.497
1.03 | 0.626 | 0.96 | GFVEDYRPPFY [ACVRL1_Y421_I417F] | 1.13 | 0.522 | 0.52 | 0.541 | 1.33 | 0.754 | 0.969 | 0.495 | 0.868 | 0.56 | 0.491 | 0.517 | 0.496
1.32 | 0.646 | 1.4 | VFPIDYFFPPQ [AR_Y552_L548F_YF] | 1.04 | 0.906 | 0.518 | 0.643 | 4.04 | 10.7 | 2.76 | 1.19 | 1.03 | 12.6 | 1.53 | 0.508 | 0.618
0.777 | 0.668 | 1 | VERRVYAEDPF [PCCA_Y401_C398R_YF] | 0.76 | 0.462 | 0.384 | 0.39 | 0.722 | 0.481 | 0.674 | 0.385 | 0.648 | 0.429 | 0.499 | 0.554 | 0.412
1.06 | 0.612 | 1.4 | IKKLIYVYLVI [JAGN1_Y42_H44Y] | 0.97 | 0.475 | 0.427 | 0.323 | 0.873 | 0.452 | 0.817 | 0.466 | 0.955 | 0.351 | 0.411 | 0.412 | 0.43
0.837 | 0.552 | 1.08 | TTKGSYSLFVR [HCK_Y180_S183Y_YF] | 1.09 | 0.419 | 0.45 | 0.43 | 1 | 0.57 | 0.742 | 0.351 | 0.546 | 0.383 | 0.846 | 0.418 | 0.441
0.608 | 1.65 | 0.88 | TRTEAYAVSSF | 0.816 | 0.353 | 0.406 | 0.328 | 0.58 | 0.396 | 0.587 | 0.442 | 0.476 | 0.373 | 0.378 | 0.399 | 0.359
0.504 | 0.589 | 0.952 | KASIMYPSNNC [CXCL11_Y52] | 0.786 | 0.394 | 0.368 | 0.359 | 0.673 | 0.49 | 0.604 | 0.528 | 0.518 | 0.484 | 0.472 | 0.446 | 0.459
1.2 | 1.76 | 1.24 | VFFGSYSRPFG [NKAP_Y104_YF] | 0.974 | 0.584 | 0.777 | 0.419 | 1.39 | 0.65 | 1.12 | 0.396 | 1.02 | 0.522 | 0.445 | 0.382 | 0.479
0.612 | 0.595 | 0.682 | PFIDSYEKDVA [PGM1_Y521_L516P_YF] | 1.04 | 0.375 | 0.378 | 0.35 | 1.07 | 0.636 | 0.594 | 0.574 | 0.51 | 0.592 | 0.708 | 0.656 | 0.606
0.679 | 0.649 | 0.752 | GESLTYASTTF [C1orf162_Y120] | 0.551 | 2.63 | 0.574 | 0.52 | 0.592 | 0.408 | 0.505 | 0.5 | 1.19 | 0.401 | 0.644 | 2.25 | 2.68
